According to the supplement of paper PMC10065799, “High-throughput profiling of sequence recognition by tyrosine kinases and SH2 domains using bacterial peptide display” (eLife, 2023):

Key:
AncSZ = assay: phosphorylation enrichment, bacterial display (enrichment ratio); higher = better substrate or ligand; peptides without Tyr show the background
EPHB1 = EPHB1 (UniProt P54762); assay: as above
EPHB2 = EPHB2 (UniProt P29323); assay: as above
FGFR1 = FGFR1 (UniProt P11362); assay: as above
FGFR3 = FGFR3 (UniProt P22607); assay: as above
FGFR3, sequence (P22607 whole entry, looked up): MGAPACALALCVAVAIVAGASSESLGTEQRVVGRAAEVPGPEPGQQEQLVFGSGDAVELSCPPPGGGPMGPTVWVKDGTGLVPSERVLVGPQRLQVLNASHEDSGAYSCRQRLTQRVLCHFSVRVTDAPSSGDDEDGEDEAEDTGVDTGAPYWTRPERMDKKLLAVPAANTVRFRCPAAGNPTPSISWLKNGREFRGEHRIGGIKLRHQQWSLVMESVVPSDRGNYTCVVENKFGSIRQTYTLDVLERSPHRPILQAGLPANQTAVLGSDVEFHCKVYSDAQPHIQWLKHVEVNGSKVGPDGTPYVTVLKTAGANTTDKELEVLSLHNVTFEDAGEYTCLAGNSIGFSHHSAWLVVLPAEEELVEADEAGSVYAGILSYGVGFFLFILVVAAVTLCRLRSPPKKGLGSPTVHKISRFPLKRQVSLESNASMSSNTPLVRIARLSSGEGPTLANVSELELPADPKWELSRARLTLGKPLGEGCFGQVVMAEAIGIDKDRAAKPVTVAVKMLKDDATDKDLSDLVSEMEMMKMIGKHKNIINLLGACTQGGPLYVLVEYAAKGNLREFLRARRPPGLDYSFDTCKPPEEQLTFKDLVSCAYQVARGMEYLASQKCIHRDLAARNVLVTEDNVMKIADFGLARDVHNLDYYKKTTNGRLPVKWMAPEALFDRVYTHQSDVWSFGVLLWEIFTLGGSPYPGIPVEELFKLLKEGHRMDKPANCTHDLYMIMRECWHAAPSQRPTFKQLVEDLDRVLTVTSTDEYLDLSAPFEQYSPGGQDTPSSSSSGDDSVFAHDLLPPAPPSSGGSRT

Fer (mouse) = assay: as above
Fes = Fes (UniProt P07332); assay: as above
Fes, sequence (P07332 whole entry, looked up): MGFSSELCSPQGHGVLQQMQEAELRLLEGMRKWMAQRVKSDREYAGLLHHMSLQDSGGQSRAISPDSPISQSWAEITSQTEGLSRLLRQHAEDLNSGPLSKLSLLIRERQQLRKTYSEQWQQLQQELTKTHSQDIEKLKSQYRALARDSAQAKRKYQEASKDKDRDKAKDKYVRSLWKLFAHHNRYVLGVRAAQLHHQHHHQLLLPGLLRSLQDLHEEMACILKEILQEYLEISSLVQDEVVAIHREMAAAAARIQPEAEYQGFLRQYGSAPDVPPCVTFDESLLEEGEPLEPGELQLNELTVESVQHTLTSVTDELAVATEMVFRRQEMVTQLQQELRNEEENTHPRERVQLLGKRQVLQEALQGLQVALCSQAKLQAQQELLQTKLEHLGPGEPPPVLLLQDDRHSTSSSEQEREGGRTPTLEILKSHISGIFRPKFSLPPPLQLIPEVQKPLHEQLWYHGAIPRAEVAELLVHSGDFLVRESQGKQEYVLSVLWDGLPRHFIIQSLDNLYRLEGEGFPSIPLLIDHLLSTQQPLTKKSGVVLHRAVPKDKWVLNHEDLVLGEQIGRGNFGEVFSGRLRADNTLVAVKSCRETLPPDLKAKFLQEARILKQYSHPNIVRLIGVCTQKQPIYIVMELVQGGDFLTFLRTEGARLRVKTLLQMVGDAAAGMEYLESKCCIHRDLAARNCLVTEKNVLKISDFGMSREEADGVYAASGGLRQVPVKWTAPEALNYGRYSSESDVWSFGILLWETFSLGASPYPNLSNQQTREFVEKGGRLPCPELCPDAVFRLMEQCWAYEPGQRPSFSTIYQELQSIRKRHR

Fyn = Fyn (UniProt P06241); assay: as above
Fyn, sequence (P06241 whole entry, looked up): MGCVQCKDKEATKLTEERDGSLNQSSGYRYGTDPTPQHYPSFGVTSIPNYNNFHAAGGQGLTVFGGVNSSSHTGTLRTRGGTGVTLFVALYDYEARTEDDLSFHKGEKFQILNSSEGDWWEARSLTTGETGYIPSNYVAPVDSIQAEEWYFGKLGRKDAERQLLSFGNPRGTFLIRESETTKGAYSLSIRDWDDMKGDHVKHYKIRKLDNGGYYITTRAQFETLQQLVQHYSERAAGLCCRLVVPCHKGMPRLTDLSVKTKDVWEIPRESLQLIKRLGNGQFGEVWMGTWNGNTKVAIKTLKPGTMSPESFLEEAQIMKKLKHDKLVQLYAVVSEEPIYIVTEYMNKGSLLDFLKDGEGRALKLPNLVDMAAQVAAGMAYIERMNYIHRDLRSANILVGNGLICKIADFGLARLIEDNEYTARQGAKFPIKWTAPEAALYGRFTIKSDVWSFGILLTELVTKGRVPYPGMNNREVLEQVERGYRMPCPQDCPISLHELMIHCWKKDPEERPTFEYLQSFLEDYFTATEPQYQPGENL

Hck = Hck (UniProt P08631); assay: as above
Jak2 = Jak2 (UniProt O60674); assay: as above
MERTK = MERTK (UniProt Q12866); assay: as above
MERTK, sequence (Q12866 whole entry, looked up): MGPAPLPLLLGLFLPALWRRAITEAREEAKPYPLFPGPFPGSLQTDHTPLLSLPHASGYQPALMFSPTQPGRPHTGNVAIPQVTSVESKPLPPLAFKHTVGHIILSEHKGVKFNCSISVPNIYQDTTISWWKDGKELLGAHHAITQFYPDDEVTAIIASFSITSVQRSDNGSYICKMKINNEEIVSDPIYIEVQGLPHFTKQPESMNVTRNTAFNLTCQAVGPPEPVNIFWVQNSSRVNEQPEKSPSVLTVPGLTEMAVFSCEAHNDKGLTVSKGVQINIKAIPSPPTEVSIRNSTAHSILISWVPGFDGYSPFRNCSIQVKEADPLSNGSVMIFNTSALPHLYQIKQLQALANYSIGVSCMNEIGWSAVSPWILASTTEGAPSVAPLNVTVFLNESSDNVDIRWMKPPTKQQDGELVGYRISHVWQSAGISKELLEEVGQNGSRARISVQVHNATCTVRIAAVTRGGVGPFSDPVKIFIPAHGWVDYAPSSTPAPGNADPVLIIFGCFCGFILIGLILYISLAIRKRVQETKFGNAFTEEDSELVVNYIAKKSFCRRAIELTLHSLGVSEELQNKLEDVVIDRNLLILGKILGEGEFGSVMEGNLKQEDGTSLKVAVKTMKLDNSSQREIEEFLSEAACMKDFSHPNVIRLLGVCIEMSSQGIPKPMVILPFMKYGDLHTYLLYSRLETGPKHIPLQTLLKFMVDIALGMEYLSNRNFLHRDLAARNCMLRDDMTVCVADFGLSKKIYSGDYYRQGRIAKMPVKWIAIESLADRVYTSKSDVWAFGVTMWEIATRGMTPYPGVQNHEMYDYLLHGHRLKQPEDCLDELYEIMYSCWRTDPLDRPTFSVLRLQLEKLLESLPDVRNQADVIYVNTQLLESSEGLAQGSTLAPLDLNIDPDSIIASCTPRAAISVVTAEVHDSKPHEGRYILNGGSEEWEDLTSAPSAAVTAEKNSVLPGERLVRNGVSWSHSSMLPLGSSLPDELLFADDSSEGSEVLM

c-Abl (mouse) = assay: as above
c-Src = assay: as above
Grb2 SH2 = Grb2 SH2 (UniProt P62993); assay: SH2 binding enrichment of the phosphorylated peptide, bacterial display (enrichment ratio); higher = better substrate or ligand; peptides without Tyr show the background
SHP2-C SH2 = assay: as above
c-Src SH2 = assay: as above
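Throughout, for SH2 binding enrichment of the phosphorylated peptide, bacterial display: peptide library displayed on the E. coli surface as eCPX fusions, selected cells deep-sequenced, score is each peptide's frequency after selection divided by its frequency in the input.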
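Throughout, for phosphorylation enrichment, bacterial display: 11-residue human phosphosite peptides and single-mutation variants displayed on the E. coli surface, counted by deep sequencing, each peptide's frequency after selection divided by its frequency in the unselected input library; frequency after pTyr selection over input frequency; kinase dosed for 20-30% of maximal phosphorylation in three min.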

EPHB1, sequence (P54762 whole entry, looked up): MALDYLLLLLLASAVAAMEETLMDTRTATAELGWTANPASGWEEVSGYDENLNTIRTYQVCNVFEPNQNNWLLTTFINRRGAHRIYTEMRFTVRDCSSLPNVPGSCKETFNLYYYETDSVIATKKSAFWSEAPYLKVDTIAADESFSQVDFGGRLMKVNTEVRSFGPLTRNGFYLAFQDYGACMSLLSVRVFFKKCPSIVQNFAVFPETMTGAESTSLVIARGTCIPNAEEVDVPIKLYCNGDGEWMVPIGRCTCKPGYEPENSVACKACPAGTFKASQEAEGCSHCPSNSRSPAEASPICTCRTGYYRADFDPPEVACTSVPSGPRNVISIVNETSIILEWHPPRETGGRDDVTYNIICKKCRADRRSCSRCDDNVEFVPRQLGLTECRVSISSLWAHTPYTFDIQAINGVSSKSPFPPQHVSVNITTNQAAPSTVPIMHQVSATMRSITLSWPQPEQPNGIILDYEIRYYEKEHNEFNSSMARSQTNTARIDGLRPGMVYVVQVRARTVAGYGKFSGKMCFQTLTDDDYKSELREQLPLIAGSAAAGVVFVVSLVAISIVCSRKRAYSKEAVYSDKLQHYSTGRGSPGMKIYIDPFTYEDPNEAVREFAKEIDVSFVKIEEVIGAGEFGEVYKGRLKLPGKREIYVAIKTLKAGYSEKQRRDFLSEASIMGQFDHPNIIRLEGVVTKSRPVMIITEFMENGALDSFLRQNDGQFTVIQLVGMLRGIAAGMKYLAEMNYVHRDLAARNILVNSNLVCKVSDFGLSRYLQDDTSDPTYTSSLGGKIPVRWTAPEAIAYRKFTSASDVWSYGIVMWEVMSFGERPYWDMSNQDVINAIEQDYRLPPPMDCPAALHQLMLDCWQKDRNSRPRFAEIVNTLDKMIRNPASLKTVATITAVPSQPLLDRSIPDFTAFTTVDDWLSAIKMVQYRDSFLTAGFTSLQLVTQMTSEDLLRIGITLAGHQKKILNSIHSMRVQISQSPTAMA
FGFR1, sequence (P11362 whole entry, looked up): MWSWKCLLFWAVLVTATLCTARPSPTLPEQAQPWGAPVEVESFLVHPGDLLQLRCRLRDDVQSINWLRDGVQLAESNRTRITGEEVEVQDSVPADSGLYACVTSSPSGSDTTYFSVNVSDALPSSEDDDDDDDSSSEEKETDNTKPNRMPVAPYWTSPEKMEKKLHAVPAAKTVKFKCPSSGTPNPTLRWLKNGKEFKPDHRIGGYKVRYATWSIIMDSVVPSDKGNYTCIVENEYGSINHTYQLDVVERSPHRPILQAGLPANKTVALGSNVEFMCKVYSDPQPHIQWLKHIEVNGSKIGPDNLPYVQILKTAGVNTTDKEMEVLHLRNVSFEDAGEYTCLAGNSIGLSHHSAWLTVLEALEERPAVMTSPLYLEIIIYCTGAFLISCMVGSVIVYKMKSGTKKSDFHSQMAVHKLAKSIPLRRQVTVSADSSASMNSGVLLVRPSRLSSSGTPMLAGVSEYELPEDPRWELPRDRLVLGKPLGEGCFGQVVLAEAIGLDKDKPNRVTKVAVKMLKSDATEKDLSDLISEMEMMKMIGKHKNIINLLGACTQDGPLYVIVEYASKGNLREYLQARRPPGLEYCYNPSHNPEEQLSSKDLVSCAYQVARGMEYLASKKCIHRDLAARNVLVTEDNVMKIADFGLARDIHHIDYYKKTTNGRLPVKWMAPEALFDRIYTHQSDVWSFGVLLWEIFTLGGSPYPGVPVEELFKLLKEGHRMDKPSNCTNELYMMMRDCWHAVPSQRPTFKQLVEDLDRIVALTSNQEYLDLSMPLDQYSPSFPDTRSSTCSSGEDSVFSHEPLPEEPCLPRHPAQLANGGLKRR

Sequence | SH2 binding enrichment (Grb2 SH2) | SH2 binding enrichment (SHP2-C SH2) | SH2 binding enrichment (c-Src SH2) | phosphorylation enrichment (AncSZ) | phosphorylation enrichment (EPHB1) | phosphorylation enrichment (EPHB2) | phosphorylation enrichment (FGFR1) | phosphorylation enrichment (FGFR3) | phosphorylation enrichment (Fer (mouse)) | phosphorylation enrichment (Fes) | phosphorylation enrichment (Fyn) | phosphorylation enrichment (Hck) | phosphorylation enrichment (Jak2) | phosphorylation enrichment (MERTK) | phosphorylation enrichment (c-Abl (mouse)) | phosphorylation enrichment (c-Src)
TAGEPYHDIRF [BAP1_Y223] | 0.899 | 0.776 | 1.94 | 0.821 | 0.555 | 0.446 | 1.54 | 1.29 | 0.523 | 0.744 | 0.498 | 0.489 | 0.64 | 0.426 | 0.429 | 0.619
TDKLFYIFTSG [SLC27A4_Y243_YF] | 0.851 | 0.825 | 0.447 | 1.6 | 0.732 | 0.701 | 0.686 | 0.886 | 0.472 | 1.44 | 0.506 | 0.524 | 1.41 | 0.538 | 0.766 | 0.469
TEDELYQLSLQ [RASGRP2_Y378] | 0.661 | 0.563 | 0.412 | 1.9 | 0.717 | 0.677 | 0.476 | 0.759 | 2.94 | 1.27 | 0.93 | 0.896 | 1.04 | 0.542 | 0.928 | 1.33
TFEFKYPEGSS [TGM4_Y440_YF] | 0.804 | 0.463 | 0.506 | 1.02 | 0.437 | 0.583 | 0.518 | 0.827 | 0.512 | 1.18 | 0.55 | 0.617 | 0.765 | 0.497 | 0.734 | 0.499
TFMKQYPKVFL [CNBD1_Y70] | 0.836 | 0.811 | 0.559 | 0.82 | 0.54 | 0.541 | 0.55 | 0.56 | 0.436 | 1.09 | 0.525 | 0.473 | 0.591 | 0.364 | 0.521 | 0.486
TILEHYRRTHC [MYBPC3_Y1119_V1115I] | 0.874 | 0.939 | 0.663 | 0.809 | 0.465 | 0.575 | 0.511 | 0.619 | 0.439 | 1.08 | 0.378 | 0.524 | 0.781 | 0.59 | 0.609 | 0.505
TINPIYEHVGY [CHN1_Y143] | 0.762 | 0.582 | 0.574 | 1.15 | 25.6 | 26.2 | 1.01 | 1.06 | 22.4 | 8.63 | 14.7 | 13.6 | 0.578 | 12.2 | 5.77 | 8.55
TIQIMYGCDVG [HLA-A_Y123] | 0.857 | 0.75 | 0.654 | 1.37 | 0.647 | 0.664 | 0.476 | 0.817 | 0.597 | 1.43 | 0.438 | 0.581 | 1.64 | 0.439 | 1.18 | 0.633
TKAEKYVNKAK [PLCG1_Y991] | 0.89 | 1.01 | 0.709 | 0.503 | 0.264 | 0.293 | 0.387 | 0.523 | 0.403 | 0.671 | 0.295 | 0.343 | 0.557 | 0.365 | 0.92 | 0.443

Further lines, with some results ahead:

SH2 binding enrichment (Grb2 SH2) | SH2 binding enrichment (SHP2-C SH2) | SH2 binding enrichment (c-Src SH2) | Sequence | phosphorylation enrichment (AncSZ) | phosphorylation enrichment (EPHB1) | phosphorylation enrichment (EPHB2) | phosphorylation enrichment (FGFR1) | phosphorylation enrichment (FGFR3) | phosphorylation enrichment (Fer (mouse)) | phosphorylation enrichment (Fes) | phosphorylation enrichment (Fyn) | phosphorylation enrichment (Hck) | phosphorylation enrichment (Jak2) | phosphorylation enrichment (MERTK) | phosphorylation enrichment (c-Abl (mouse)) | phosphorylation enrichment (c-Src)
0.82 | 0.914 | 0.707 | SVVVSYEPPEV [TP53_Y220_P219S] | 1.23 | 0.519 | 0.579 | 0.475 | 0.594 | 0.515 | 0.918 | 0.587 | 0.632 | 0.808 | 0.434 | 0.749 | 0.432
1.6 | 1.88 | 1.67 | SYCYRYRCAAW [SUMF1_Y344_R349W] | 0.707 | 0.445 | 0.453 | 0.532 | 0.508 | 0.404 | 0.785 | 0.395 | 0.386 | 0.508 | 0.497 | 0.594 | 0.471
0.625 | 0.98 | 0.412 | TCFDKYTGNTF [FN1_Y101_YF] | 1.35 | 0.813 | 0.772 | 0.508 | 0.92 | 0.647 | 1.18 | 0.563 | 0.567 | 1.16 | 0.501 | 0.93 | 0.544
1.2 | 0.94 | 0.536 | TDHLQYFDSNK [ARAP1_Y359_R358Q] | 0.809 | 0.721 | 0.651 | 0.928 | 0.84 | 0.654 | 1.31 | 0.79 | 0.697 | 0.914 | 0.607 | 0.695 | 0.656
0.836 | 0.695 | 0.485 | TGQERYRAITS [RAB11B_Y73_A68T] | 0.516 | 0.322 | 0.291 | 0.423 | 0.392 | 0.346 | 0.588 | 0.451 | 0.519 | 0.369 | 0.337 | 0.368 | 0.344
0.903 | 0.98 | 0.673 | THQNSYQPGRK [CEFIP_Y210] | 0.561 | 0.233 | 0.366 | 0.479 | 0.34 | 0.303 | 0.436 | 0.36 | 0.375 | 0.415 | 0.34 | 0.422 | 0.299
0.867 | 0.743 | 2.21 | TISPYYCQSLF [CRYAA_Y48_R49C] | 1.1 | 0.934 | 0.543 | 5.32 | 4.43 | 0.939 | 1.13 | 1.12 | 0.79 | 1.26 | 5.18 | 1.13 | 1.76
